Data from the nanobody polyreactivity screen of Harvey et al. (2022).

Assay: yeast display, Sf9 membrane polyspecificity reagent, FACS + sequencing; frameworks hold sequencing errors
How it was run: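 In a synthetic yeast display library (Saccharomyces cerevisiae BJ5465), nanobody expression was induced with galactose for 36–48 hours. FACS gates were set low and high (top ~1%) using anti-HA fluorescence for expression and streptavidin fluorescence for binding of the Sf9 membrane reagent. Each polyreactivity label is drawn from the gate of origin.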

| Sequence | polyreactivity (PSR sort gate) |
| --- | --- |
| QVQLEESGGGLVQAGGSLRLSCAASGRICAYYTMGWYRQAPGKERELVASITSGSSTNYADSVKGRFTISRDNAKNTVYLQMNSLKPEDTAVYYSAAPRGSYVRTRYRGYVVQSNYWGQGTQVTVSS | high polyreactivity |
| QVQLQESGGGLVQAGGSLRLSSAASGTISPLPAMGWYRHAPGKEREFVAGIDTGAIHNYADSVKGRFTIRRDNAKNTVYLQMNSLKPEDTAVYYCAVFPAAYEYYERYYTYWGQGTQVTVSS | low polyreactivity |
| QVQLVESGGGLVQAGAILRLSCAASGYIFVSYYLGWYRQAPGKEREVVAAISWRGGSTFYADSVKGRFTISRDNAKNTVYLQMNSLKPEDTAVFYCAVDDWLDWLFADFGYWGQGTQVTVSS | low polyreactivity |
| QVQLVESGGGLVQAGGSLRLSCAASGFTFIRYAMGWYRPAPGKERELVATITRRGGSTYYADSVKGRFSISRDNAKNTVYLQMNCLKPEDTAVYYCNRDYVTYGKYYYWGQGTQVTVSS | high polyreactivity |
| QVQLVESGGGLVQAGGSLRLSCAASGRIFVPYVMGWYRQAPGKERELVASISDSDTSTYYADSVKGRFTISRDNAKNTVYLQMNSLKPEDSAVYYCNVDYWGQGTQVTVSS | low polyreactivity |
| QVQLVESGGGLVQAGGSLRLICAASGITFDYYVMGWSRQAPGKERELVAVITWSGSTYYADSVKGRFTISRDNAKNTVYLQMNSLKPEDTAVYYCAADWVTYYDFEFYYWGQGTQVTVSS | high polyreactivity |
| QVQLVESGGGLVQAGGSLRLSCAASGRIFPQYAMGWYRQAPGKERELVAGITSVGSTYYADSVKGRFTISRDNAKTTVYLQMNSLKPEDTAVFYCAAVPSRYVRANRRTYRYYYWGQGTQVTVSS | high polyreactivity |
| QVQLVESGGGLVQAGGSLRLSCAASGRTFGQNALGWYRQAPGKERELVASIRSGGITDYADSVKGRFTISRDNAKNTVYLQMNSLKPEDTAVYYCNAEGVWWSTRYDSWGQGTQVTVSS | low polyreactivity |
| QVQLVESGGGLVQAGGSLRLSCAASGSIFADNAMGWYRQAPGKEMELVADISWSGGRTYYADSVKGRFTISRDNAKNTVYLQMNSLKPEDTAVYYCAARYRDYRAGFDYWGQGTQLTVSS | high polyreactivity |
| QVQLQESAGARQPAPELRGERIYFWLLLMCWYRQAPGEERELVAGINDGASTNYADSVKGRFTISRDNARNTVYLKMNSLKPGDTAVYYCAVWQPVLIWFYYWGQGTHVTVSS | high polyreactivity |
| QVQLVESGGGLVQAGGSLRLSCAASGRTFRSYAMGWYRQAPGKERELVAGISYNGGSTYYADSVKGRFTISRDNAKNTVYLQMNSLKPEDTAVYYCAATDHYRLYDYWGLGTQVTVSS | low polyreactivity |
| QVQLVESGGGLVQAGGSLRLSCAASGSIFYFNDMGWYRQAPGKEREFVARITRSGSSTSYADSVKGRFTISRDNAKNTVYLQMNSLKPEDTAVYYCAARYRRYSTSRYYYWGQGTQVTVSS | high polyreactivity |
| QFQLVESGGGLVQAGGSLRLSCAASGFTFSHNTMGWYIQSPGKEREFVARISGRGVSTSYADSVKGRFTISRDNAKNTVYLQMNCLKPEDTAVYYCNRRVAYLSGYSYDYWGQGTQVTVSS | high polyreactivity |
| QVQLVESGGGLVQAGGSLRLSCAASGRIFGNYAMGWYIQAPGKERELVAAISSGGNTNYADSVKGRFTISRDNAKNTVYLQMNSLKPEDTAVYYCAAYHFSFGWIRVDYWGQGTQVTVSS | high polyreactivity |
| QVQLVESGGGLVQAGGRLRLTCAASGINFRSYAMGWYRQATGKERELVAGISLSGGSTYYADSVKGRFTISRDNAKNSDYLQMNSLKPEDTAVYYCATRYHYFGALRYGYCGQGTQVTVSS | high polyreactivity |
| QVQLVESGGGLVQAGGSLRLSCAASGSTFPLNAMGWYRQAPGKERELVASINFGGGTTYYADSVKGRFTISRDNAKNTVYLQMNSLKPEDTAVYYCAADVYRGTYRRDYWGQGTQVTVSS | high polyreactivity |

| Sequence | polyreactivity (PSR sort gate) |
| --- | --- |
| QVQLVESGGGLVQAGGSLRLSCAASGSTFHSYAIGWYRQAPGKEREFVAAITIRGGSTYYADSVKGRITISRDNAKNTVYLQMNSLKPEDNAVYYCAALVWGSYARWRYYCGQGTQVTVSS | high polyreactivity |
| QVQLVESGGGLVQAGGSLRLSCAASGITFYRNAMGWYRQATGKERELVAAITSGTSTYYADSVKGRFTISRDNAKNTVYLQMNSLKPEDTAVYYCAKRTPPGYYGFDYWGQGTQVTVSS | low polyreactivity |
| QVQLVESGGGLVQAGGSLRLSCAASGFTFRIYAMGSYRQAPGKERELVAAISWAGGSTFYADSVKGRFTISRDNAKNTVYLQMNSLKPEDTAVYYCAADTAFHYDYWGQGTQVTVSS | low polyreactivity |
| QVQLVESGGGLVQAGGSLRLSCAASGSTLSVYAMGWYRQAPGKERELVAVISRSGGSTYYADSVKGRFTISRDNAKNTVYLQMNSLKPEDTAVYYCAARGRRTGDYDYWGQGTQVTVSS | high polyreactivity |
| QVQLVESGGGLVQAGGSIRLSCAASGFIFKWYAMGWYRQAPGKERELVAVINRSGSTYYADSVKGRFTISRDNAKNTVYLQMNSLKPEDTAVYYCAAVQQYSSVYYYTYDYWGQGTQVTVSS | high polyreactivity |
| QVQLVESGGGLVQAGGSLRLSCAASGSTFPYYAMGWYRQAPGKERELVASIRKRGGGTYYADSVKGRFTISRDNAKNTVYLQMNSLKPEDTAVYYCAVRVYQFRYTGYDYWGQGTQVTVSS | high polyreactivity |
| QVQLVESGGGLVQAGGSLRLSCAASGRILYIYAMGWYRQAPGKERELVAAIRSSGGSTYYADSVKGRFTISRDNAKNSVYLQMNSLKPDDTAVYYCAATSRVSKSHLYGYWGQGTQVTVSS | high polyreactivity |
| QVQLVESGGGLVQAGGSLRLSCAASGSIFRRYDMGWYRQAPGKERELVAAISSSGGSTYYADSVKGRFTISRDNAKNTVYLHMKSLKPEDTAVYYCAADIYDYDRSEYTEYDYWGQGTQVTVSS | low polyreactivity |
| QVQLVESGGGLVQAGGSLRLSCAASGSIFPYYAMGWYRQAPGKERELVAAISWSGTSTYYADSLKGRFTISRDNAKNTVYLQMNSLKPEDTAVYYCAASAVGTNHYGYWNESDYWGQGTQVTVSS | low polyreactivity |
| HVQLVESGGGLVQAGGSLRLSCAASGSICSWYGMGWYRQAPGKERELVAAITWTGGSTYYADSVKGRFTISRDNAKNTVYLQMNSLKQEDTAVYYCSADLRYVGFYYWGQGTQVTVSS | high polyreactivity |
| QVQLVESGGGLVQAGGSLRLSCAASGGTFQYYTMGWYRQAPGKERELVAGISSGGSTYYPDSVKGRFTISRDNAMNTVYLQMNRLKPEVTAVYYCNAVSRRKTYGYRIIKYDYWGQGTQVTVSS | high polyreactivity |
| HVQLVESVGGLVQAGGSLRLRCAASGSIFYRNAMGWYRKAPGKERELVAAISSDGSTNYADSVKGRFTISRDNAKNSVYFQMNSLKPEDTAVYYCAAPWTQILDYWGQGTQVTVSS | low polyreactivity |
| QVQLVESGGGLVQAGGSLRLTCAASGSTFYSYTMGWYRQAPGKERELVAVISSSGGRTYYADSVKGRFTISRDNAKNTVYFQMNSLKPEDTAVYYCAASQRGYFDYRLWSFRSDSWGQGTQVTVSS | high polyreactivity |
| QVQLVESGGGLVQAGGSLRLSCADSGSIFSYYAMGWYRQEPGKARELVASISRTGVSTHYADSVKGRFTISRDNAKNTVYLQMNSLKPEDNAVYYCNAKYLTWSYRYYYWGQGTQVTVSS | high polyreactivity |
| QVQLVESGGGLVQAGGSLRLSCAASGLIYTPYAMGWYRQAPGKERELVAAINYGGSRTYYADSVKGRFTISRDNAKNTVYLQMNSLKQEDTAVYYCNKPGNYVWRRSWDFDYWGQGTQVTVSW | high polyreactivity |
| QVQLVESGGGLFQAGGSLRLSCAASGSIFYINAMGWYRQAPGKERELVAAISQSDGSTYYADSVKGRFTISSDNAKNTVYLQLNSLKPEDTAVYYCAADAYVLFYGDWYEFDYWGQGTQVTVSS | high polyreactivity |
